Assay results published in US20190269788A1.

Columns and labels:
[1] = target: soluble recombinant human IGF1R hetero-tetramere with C-terminal 10-His tag (R&D Systems catalogue number 305-GR-50) (human) (UniProt P08069); assay: SPR Biacore X100, Ln(2)/koff
[2] = target: soluble recombinant human IGF1R hetero-tetramere with C-terminal 10-His tag (R&D Systems catalogue number 305-GR-50) (human) (UniProt P08069); assay: SPR Biacore X100, His-captured h-IGF1R around 600 RU, mean of four experiments

B1: hz208F2 VH3/VL3 (antibody, human IgG1, kappa, V domains shown)
VH: QVQLVQSGAEVKKPGASVKMSCKASGYTFTSYYIYWVKQAPGQGLEWLGWIWPGDGSTKYNEKFQGRVTLTADKSSNTAYMFLSSLRSEDTAVYFCASPMITPNYAMDYWGQGTLVTVSS
VL: DIQMTQSPSSLSASVGDRVTISCRASQDISKYLNWYQQKPGKAPKLLIYYTSRLHSGVPSRFSGRGSGTDYSLTISNLQPEDFATYFCQQGSTLPYTFGGGTKVEIKR
B1 was tested, and the half-life of the complex [1] was 2 to 3 h and the Kd [2] was 0.06 nM.
